# Test results from the RNAGym collection of RNA variant scans (doi:10.1093/molbev/msab373).
# B1: Azoarcus group I ribozyme (parent)
# chain: GUGCCUUGCGCCGGGAAACCACGCAAGGGAUGGUGUCAAAUUCGGCGAAACCUAAGCGCCCGCCCGGGCGUAUGGCAACGCCGAGCCAAGCUUCGGCGCCUGCGCCGAUGAAGGUGUAGAGACUAGACGGCACCCACCUAAGGCAAACGCUAUGGUGAAGGCAUAGUCCAGGGAGUGGCGAAAGUCACACAAACCGG
# Variants of: B1
# Test: reverse-splicing fitness (ratio to wild type); higher = more active; in vitro selection; Mg2+ level not given
# Outline: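 An in vitro group I ribozyme library with randomized positions was T7-transcribed and gel-purified. In triplicate, 10 pmol RNA in EPPS pH 7.5 was reacted with 50 pmoles of a 30-nt RNA substrate for 1 h at 37 °C across several added MgCl2 levels (1–48 mM), then stopped with EDTA. Products were reverse transcribed from a substrate-complementary primer, PCR-amplified and sequenced (HiSeq 4000). Fitness is a variant's read proportion after selection over that before, normalised to wild type.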
row,Variant,reverse-splicing fitness
1,C82A A120G A145G C150A C169G,0.0104
2,C82A A120G A145G C150A C169G U176A,0.018
3,C82A A120G A145G C150A C169G U176C,0.0247
4,C82A A120G A145G C150A C169G U176G,0.00523
5,C82A A120G A145G C150A C169U,0.00961
6,C82A A120G A145G C150A C169U U176A,0.0211
7,C82A A120G A145G C150A C169U U176C,0.0185
8,C82A A120G A145G C150A C169U U176G,0.00592
9,C82A A120G A145G C150A U176A,0.0108
10,C82A A120G A145G C150A U176C,0.0213
11,C82A A120G A145G C150A U176G,0.00779
12,C82A A120G A145G C150G,0.00892
13,C82A A120G A145G C150G C169A,0.01
14,C82A A120G A145G C150G C169A U176A,0.0138
15,C82A A120G A145G C150G C169A U176C,0.0128
16,C82A A120G A145G C150G C169A U176G,0.00858
17,C82A A120G A145G C150G C169G,0.00916
18,C82A A120G A145G C150G C169G U176A,0.0097
19,C82A A120G A145G C150G C169G U176C,0.0124
20,C82A A120G A145G C150G C169G U176G,0.00587
21,C82A A120G A145G C150G C169U,0.0106

row,Variant,reverse-splicing fitness
1,C82A A120G A145G C150G C169U U176A,0.0129
2,C82A A120G A145G C150G C169U U176C,0.0123
3,C82A A120G A145G C150G C169U U176G,0.00741
4,C82A A120G A145G C150G U176A,0.00745
5,C82A A120G A145G C150G U176C,0.011
6,C82A A120G A145G C150G U176G,0.00572
7,C82A A120G A145G C150U,0.0203
8,C82A A120G A145G C150U C169A,0.0179
9,C82A A120G A145G C150U C169A U176A,0.016
10,C82A A120G A145G C150U C169A U176C,0.0196
11,C82A A120G A145G C150U C169A U176G,0.00535
12,C82A A120G A145G C150U C169G,0.0197
13,C82A A120G A145G C150U C169G U176A,0.0149
14,C82A A120G A145G C150U C169G U176C,0.0199
15,C82A A120G A145G C150U C169G U176G,0.0046
16,C82A A120G A145G C150U C169U,0.016
17,C82A A120G A145G C150U C169U U176A,0.0182
18,C82A A120G A145G C150U C169U U176C,0.0172
19,C82A A120G A145G C150U C169U U176G,0.00463
20,C82A A120G A145G C150U U176A,0.0104
21,C82A A120G A145G C150U U176C,0.0178

row,Variant,reverse-splicing fitness
1,C82A A120G A145G C150U U176G,0.00667
2,C82A A120G A145G C169A,0.0151
3,C82A A120G A145G C169A U176A,0.0208
4,C82A A120G A145G C169A U176C,0.0273
5,C82A A120G A145G C169A U176G,0.00382
6,C82A A120G A145G C169G,0.0223
7,C82A A120G A145G C169G U176A,0.0223
8,C82A A120G A145G C169G U176C,0.032
9,C82A A120G A145G C169G U176G,0.00359
10,C82A A120G A145G C169U,0.0148
11,C82A A120G A145G C169U U176A,0.022
12,C82A A120G A145G C169U U176C,0.0195
13,C82A A120G A145G C169U U176G,0.0046
14,C82A A120G A145G U176A,0.0143
15,C82A A120G A145G U176C,0.021
16,C82A A120G A145G U176G,0.00561
17,C82A A120G A145U,0.0219
18,C82A A120G A145U C150A,0.00826
19,C82A A120G A145U C150A C169A,0.00876
20,C82A A120G A145U C150A C169A U176A,0.0132
21,C82A A120G A145U C150A C169A U176C,0.0115

row,Variant,reverse-splicing fitness
1,C82A A120G A145U C150A C169A U176G,0.00386
2,C82A A120G A145U C150A C169G,0.00799
3,C82A A120G A145U C150A C169G U176A,0.0133
4,C82A A120G A145U C150A C169G U176C,0.0154
5,C82A A120G A145U C150A C169G U176G,0.00358
6,C82A A120G A145U C150A C169U,0.0066
7,C82A A120G A145U C150A C169U U176A,0.0207
8,C82A A120G A145U C150A C169U U176C,0.0164
9,C82A A120G A145U C150A C169U U176G,0.00431
10,C82A A120G A145U C150A U176A,0.0108
11,C82A A120G A145U C150A U176C,0.0131
12,C82A A120G A145U C150A U176G,0.00503
13,C82A A120G A145U C150G,0.00781
14,C82A A120G A145U C150G C169A,0.00891
15,C82A A120G A145U C150G C169A U176A,0.0097
16,C82A A120G A145U C150G C169A U176C,0.01
17,C82A A120G A145U C150G C169A U176G,0.00378
18,C82A A120G A145U C150G C169G,0.00902
19,C82A A120G A145U C150G C169G U176A,0.0066
20,C82A A120G A145U C150G C169G U176C,0.00552
